Our source for the yield by MPE8 binding ELISA values is patent publication US20250223319A1.

The target in this test is F HIV-clamp (respiratory syncytial virus). Nature of the test: capture ELISA, 101F coat and MPE8 detection; antigen yield estimate, control.

For the substance MPE8 (antibody), the yield by MPE8 binding ELISA was 10 mg/L.
